Assay results as given in publication PMC5240642.
pKd: −log10 of the molar value.

Molecular target: FcγRIIIa F158 extracellular domain (UniProt P08637)
Assay: SPR

UniProt P08637, sequence (P08637 17-208): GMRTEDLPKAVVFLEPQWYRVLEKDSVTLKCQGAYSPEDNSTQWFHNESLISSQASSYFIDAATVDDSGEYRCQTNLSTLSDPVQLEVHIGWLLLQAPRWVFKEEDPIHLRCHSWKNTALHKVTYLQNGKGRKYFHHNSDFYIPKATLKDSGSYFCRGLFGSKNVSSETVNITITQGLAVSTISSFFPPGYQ

| pKd | Substance |
| --- | --- |
| 8.10 | MSB11022 complexed with TNF homotrimer (2:1 molar ratio) (from UniProt P01375 77-233) |
| 8.16 | Humira® complexed with TNF homotrimer (2:1 molar ratio) (from UniProt P01375 77-233) |
